# According to patent US20240228596A1 (VIB VZW, published 2024):
# How the values were obtained:
# [1] = target: SARS-COV-2 Wuhan WT Spike_del18 on VSV-delG pseudotyped particles (SARS-COV-2, UniProt P0DTC2 14-1255); test: cell-based or functional assay
# [2] = target: T1, SARS-COV-2 RBD displayed on the surface of Saccharomyces cerevisiae cells (SARS-COV-2, UniProt P0DTC2 331-531); test: flow cytometry, yeast-displayed RBD
# [3] = target: T1, SARS-COV-2 RBD displayed on the surface …; test: yeast cell ELISA (FIG. 27)
# [4] = target: monomeric human Fc-fused SARS-COV-2_RBD-SD1 (SARS-COV-2, UniProt P0DTC2 319-591)
binder,measurement,setting,value
VHH72_h1_S56A (VHH) VHH: EVQLVESGGGLVQPGGSLRLSCAASGRTFSEYAMGWFRQAPGKEREFVATISWSGGATYYTDSVKGRFTISRDNAKNTVYLQMNSLRPEDTAVYYCAAAGLGTVVSEWDYDYDYWGQGTLVTVSS,IC50 Mean VSV-dG-spike SARS-COV-2,[1],1.14 µg/mL
VHH3.89 (VHH) VHH: QVQLQESGGGLVQPGGSLRLSCAASGFTLDYYAIGWFREVPGKEREGLSRIDSSDGSTYYADSVKGRFTISRDNTKNIVYLQMNNLKPEDTAVYYCATDPIIQGRNWYWTGWGQGTQVTVSS,binding result,[2],binds
"KiH19 = VHH117/VHH83-10GS-KiH (bispecific antibody, V domains shown) V domain 1: DVQLQESGGGLVQPGGSLRLSCAASGKAVSISDMGWYRQPPGKQRELVATITKTGSTNYADSAQGRFTISRDNTKSAVYLEMKSLKPEDTAVYYCNAWLPYGMGPDYYGMELWGKGTQVTVSS V domain 2: DVQLQESGGGLVQPGDSLRLSCVLSGGVFTSYAMGWFRQAPGKEREFLAAITFNSDATYYADSVKGRFTISRDNAKNTAYLQMNSLKPEDTAVYSCAAGGNHYNPQYYHDYDKYDHWGQGTQVTVSS",binding result,[3],binds
VHH3.117 (VHH) VHH: QVQLQESGGGLVQPGGSLRLSCAASGKAVSISDMGWYRQPPGKQRELVATITKTGSTNYADSAQGRFTISRDNTKSAVYLEMKSLKPEDTAVYYCNAWLPYGMGPDYYGMELWGKGTQVTVSS,Kd,[4],0.445 nM
